The values that follow come from patent publication US20200002421A1, “ANTI-B7-H3 ANTIBODIES AND ANTIBODY DRUG CONJUGATES” (AbbVie Inc., priority 2016, published 2020).

The target of one test is T1, huB7-H3 (Homo sapiens, UniProt Q5ZPR3).
T1 construct: His tag (6xHis) (C)
T1 sequence (Q5ZPR3 with tags, fused parts or gaps): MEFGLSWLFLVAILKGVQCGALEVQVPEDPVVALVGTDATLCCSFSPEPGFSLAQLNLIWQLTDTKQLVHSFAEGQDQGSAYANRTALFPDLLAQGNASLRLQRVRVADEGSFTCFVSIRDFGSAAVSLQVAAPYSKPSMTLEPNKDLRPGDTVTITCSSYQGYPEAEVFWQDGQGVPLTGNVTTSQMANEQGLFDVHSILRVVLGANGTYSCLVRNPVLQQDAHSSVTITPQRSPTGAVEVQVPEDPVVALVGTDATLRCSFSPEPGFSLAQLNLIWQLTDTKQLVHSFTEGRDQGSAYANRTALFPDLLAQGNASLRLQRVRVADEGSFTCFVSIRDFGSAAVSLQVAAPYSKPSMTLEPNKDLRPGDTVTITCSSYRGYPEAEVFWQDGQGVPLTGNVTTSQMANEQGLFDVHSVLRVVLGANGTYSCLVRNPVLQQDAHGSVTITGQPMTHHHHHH
Description: Biacore T200 SPR binding kinetics, mAb capture. The settings on record: Table 3. As to the method: The binding affinity of the purified anti-B7-H3 monoclonal antibodies was determined by surface […]. […] The binding kinetics were derived from SPR measurements using a Biacore T200 instrument and a mAb capture approach (as described in the materials and methods below).
Biacore T200 SPR instruments were used to measure the binding kinetics of human B7-H3 (4Ig-B7-H3 variant) (analyte) binding to various mAbs (ligands). The assay format was Fc-based capture via immobilized anti-mouse (Fc) (Pierce 31170) or immobilized anti-human (Fc) (Pierce 31125). A standard amine coupling protocol was employed to immobilize the capture reagents via primary amines to the carboxy-methyl (CM) dextran surface of CM5 sensorchips (Biacore); capture antibodies were coupled to a level of approximately 5000 RU. For binding kinetic measurements the assay buffer was HBS-EP+(Biacore): 10 mM Hepes, pH7.4, 150 mM NaCl, 3 mM EDTA, 0.05% polysorbate 20. During the assay, all measurements were referenced against the capture surface alone. Each assay cycle consisted of the following steps: 1) Capture of ligand to approximately 50 RU; 2) Analyte injection over both reference and test surface, 240 μL at 80 μL/min, after which the dissociation was monitored for 900 seconds at 80 μL/min; 3) Regeneration of capture surface with low pH glycine. For kinetic determinations analyte injections were 3-point, 9-fold dilution series of 900 nM, 100 nM and 11.11 nM, buffer only injections were included for secondary referencing. Data were processed and fit to a 1:1 binding model using Biacore T200 Evaluation Software to determine the binding kinetic rate constants, ka (on-rate) and kd (off-rate), and the equilibrium dissociation constant (affinity, KD).
A general note: In SPR one partner is held on a chip, and binding of the other changes the refractive index at the surface.

Another test addresses T2, human B7-H3 (Homo sapiens, UniProt Q5ZPR3).
T2 construct: His tag (6xHis) (C)
T2 sequence (Q5ZPR3 with tags, fused parts or gaps): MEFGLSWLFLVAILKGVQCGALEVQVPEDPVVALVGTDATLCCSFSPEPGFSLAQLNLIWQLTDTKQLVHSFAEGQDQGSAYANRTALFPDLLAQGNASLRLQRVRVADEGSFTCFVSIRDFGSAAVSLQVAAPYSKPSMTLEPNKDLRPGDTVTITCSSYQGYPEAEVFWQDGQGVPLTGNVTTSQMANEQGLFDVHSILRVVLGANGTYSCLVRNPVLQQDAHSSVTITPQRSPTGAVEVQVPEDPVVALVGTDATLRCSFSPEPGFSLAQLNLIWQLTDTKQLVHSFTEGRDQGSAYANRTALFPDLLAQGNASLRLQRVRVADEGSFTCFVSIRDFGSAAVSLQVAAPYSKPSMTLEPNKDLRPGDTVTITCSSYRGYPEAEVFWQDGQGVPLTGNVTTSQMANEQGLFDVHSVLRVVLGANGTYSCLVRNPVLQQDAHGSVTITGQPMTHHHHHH
Description: Epitope grouping by pair-wise Biacore SPR binding. The settings on record: simultaneous binding assay, FIG. 1. The source says:
Pair-wise binding assays performed on Biacore T200 SPR instruments were used to determine the relative epitope grouping for the murine anti-B7-H3 mAbs as described in the methods below. […] Epitope groups are represented as individual ovals, some of which overlap with each other. Antibodies in different epitope groups can bind to B7-H3 simultaneously and likely bind to different epitopes while antibodies within a given epitope group cannot bind to B7-H3 simultaneously and likely bind to overlapping epitopes. The grouping information was derived from a simultaneous binding assay as described in materials and methods. Ab3, Ab4, Ab5, Abl 1, Ab12, and Ab8 groupings were ambiguous
Pair-wise binding assays performed on Biacore T200 SPR instruments were used to determine the relative epitope grouping for a series of anti-B7-H3 mAbs. The assay format was Fc-based capture via immobilized anti-mouse (Fc) (Pierce 31170) or immobilized anti-human (Fc) (Pierce 31125). A standard amine coupling protocol was employed to immobilize the capture reagents via primary amines to the carboxy-methyl (CM) dextran surface of CM5 sensorchips (Biacore); capture antibodies were coupled to a level of approximately 2000 RU. Epitope grouping measurements were done at 12° C. (low temperature allows for grouping information on fast off-rate mAbs), the assay buffer was HBS-EP+(Biacore): 10 mM Hepes, pH7.4, 150 mM NaCl, 3 mM EDTA, 0.05% polysorbate 20. Each assay cycle consisted of the following steps in a four flowcell system: 1) separate test mAbs were captured in flowcells 2, 3 & 4 (flowcell 1 was reference, no test mAb); 2) all 4 flowcells were then blocked by injection with isotype control mAb or isotype mAb cocktail at 50 μg/mL; 3) all 4 flowcells were then injected with antigen or buffer only (buffer only is for double referencing, done for each mAb pair individually); 4) all 4 flowcells were then injected with 2nd test mAb at 10 μg/mL; 5) all 4 flowcells were then regenerated with glycine, pH1.5. The assay was done for each test mAb pair in reciprocal orientations. Simultaneous binding was evaluated examining the ratio of the 2nd test mAb response to the Ag response (RUmAb2/RUAg); if this ratio was equal to or greater than 0.2 the interaction was scored as a simultaneous binder. From this pair-wise binding assay data a “venn” style diagram was constructed manually to depict relative epitope groupings.

B1: Ab13: mouse hybridoma anti-B7-H3 monoclonal antibody, mouse IgG1/k (antibody, V domains shown)
VH: DVQLQESGPDLVKPSQSLSLTCTVTGYSITSGYSWHWIRQFPGNKLEWMGYIHSSGSTNYNPSLKSRISINRDTSKNQFFLQLNSVTTEDTATYYCAGYDDYFEYWGQGTTLTVSS
VL: DIVMTQSQKFMSTSVGDRVSVTCKASQNVGFNVAWYQQKPGQSPKALIYSASYRYSGVPDRFTGSGSGTDFTLTISNVQSEDLAEYFCQQYNSYPFTFGSGTKLEIK
B1: the “huB7-H3 ka(1/Ms)” value with huB7-H3 worked out at 330000 M⁻¹ s⁻¹.

B2: Ab4: mouse hybridoma anti-B7-H3 monoclonal antibody, mouse IgG2b/k (antibody, V domains shown)
VH: QVQLQQPGAELVKPGASVKLSCKASGYSFTSYWMHWVKQRPGQGLEWIGMIHPNSGSNNYNEKFKSKATLTVDKSSNTAYMQLSSLTSEDSAVYYCARRLGLHFDYWGQGTTLTVSS
VL: DIVMTQSQKFMSTPVGDRVSITCKASQNVGTAVAWYQQKPGQSPKLLIYSASNRYTGVPDRFTGSGSGTDFTLTISNMQSEDLADYFCQQYSSYPYTFGGGTKLEIK
B2: in the test with huB7-H3, the “huB7-H3 ka(1/Ms)” value was determined as 690000 M⁻¹ s⁻¹. For the same molecule, the epitope grouping entry with human B7-H3 is “ambiguous”.

B3: Ab5: mouse hybridoma anti-B7-H3 monoclonal antibody, mouse IgG1/k (antibody, V domains shown)
VH: QVQLQQPGDELVKPGASVKLSCKTSGYTFTTDWMHWVKQRPGQGLEWIGMIHPNSGTTNYNEKFKSKAALTVDKSSSTACMQLSSLTSEDSAVYYCARSYWKWYFDVWGTGTTVTVSS
VL: QIVLTQSPAIMSASLGEEITLTCSASSSVSYMHWYQQKSGTSPKLLIYSTSNLASGVPSRFSGSGSGTFYSLTISSVEAEDSADYYCHQWTSYMYTFGGGTKLEIK
Regarding B3, in the test with huB7-H3, the “huB7-H3 ka(1/Ms)” value was found to be 1.3e+06 M⁻¹ s⁻¹. In addition, the epitope grouping entry with human B7-H3 was “ambiguous”.

B4: Ab16: mouse hybridoma anti-B7-H3 monoclonal antibody, mouse IgG1/k (antibody, V domains shown)
VH: EVKLLESGGGLVQPGGSLKLSCAASGFDFSRYWMSWVRQAPGKGLEWIGEINPDSSTINYTPSLKDKFIISRDNAKNTLYLQMSKVRSEDTALYYCARPGFGNYIYAMDYWGQGTSVTVSS
VL: DIQMTQTTSSLSASLGDRVTINCRASQDISNFLNWYQQKPDGTVKLLIYYTSRLYLGVPSRFSGSGSGTDYSLTISNLEQEDIATYFCQQGNTLPPTFGGGTKLEIK
As for B4, the “huB7-H3 ka(1/Ms)” value with huB7-H3 turned out to be 140000 M⁻¹ s⁻¹.

B5: Ab6: mouse hybridoma anti-B7-H3 monoclonal antibody, mouse IgG1/k (antibody, V domains shown)
VH: QVQLQQSGAELMKPGASVKISCKATGYTFSRYWIEWVKQRPGHGLEWIGEILPGSGSTNYNEKFKGKATFTADTSSNTAYMQVSSLTSEDSAVHYCARRGYGYVPYALDYWGQGTSVTVSS
VL: EIQMTQTTSSLSASLGDRVTISCRASQDISNSLNWYQQKPDGTVNLLIYYTSRLYSGVPSRFSGSGSGTDYSLTISNLEQEDIATYFCQQGNTLPYTFGGGTKLEIK
Take B5: the “huB7-H3 ka(1/Ms)” value with huB7-H3 came out at 12000 M⁻¹ s⁻¹.

B6: Ab17: mouse hybridoma anti-B7-H3 monoclonal antibody, mouse IgG2b/k (antibody, V domains shown)
VH: EVKLVESGGGLVQPGGSLKLSCAASGFTFSSYIMSWVRQTPEKRLEWVASIVSSNITYYPDSMKGRFTISRDNARNILYLQMSSLKSEDTAMYYCARSGTRAWFAYWGQGTLVTVSA
VL: DIVLTQSPASLAVSLGQRATISCRASKSVSTSAYSYMHWYQQKPGQPPKLLIYLASNLESGVPARFSGSGSGTDFTLNIHPVEEEDAATYYCQHSRELPYTFGGGTKLEIK
As to B6, the “huB7-H3 ka(1/Ms)” value with huB7-H3 is 540000 M⁻¹ s⁻¹.

B7: Ab18: mouse hybridoma anti-B7-H3 monoclonal antibody, mouse IgG1/k (antibody, V domains shown)
VH: QVQLQQSAAELARPGASVKMSCKASGYSFTSYTIHWVKQRPGQGLEWIGYINPNSRNTDYNQKFKDETTLTADRSSSTAYMQLISLTSEDSAVYYCARYSGSTPYWYFDVWGAGTTVTVSS
VL: QIVLTQSPAILSASPGEKVTMTCRASSSVSYMNWYQQKPGSSPKPWIYATSNLASGVPARFSVSVSGTSHSLTISRVEAEDAATYYCQQWSSNPLTFGAGTKLELK
B7: in the test with huB7-H3, the “huB7-H3 ka(1/Ms)” value came out at 210000 M⁻¹ s⁻¹.

B8: Ab14: mouse hybridoma anti-B7-H3 monoclonal antibody, mouse IgG1/k (antibody, V domains shown)
VH: EVKLVESGGGLVKPGGSLKLSCAASGFTFSSYGMSWVRQTPEKRLEWVATISGGGTNTYYPDSVEGRFTISRDNAKNFLYLQMSSLRSEDTALYYCARHYGSQTMDYWGQGTSVTVSS
VL: DIQMTQSPASLSASVGETVTITCRTSGNIHNYLTWYQQKQGKSPQLLVYNAKTLADGVPSRFSGSGSGTQFSLKINSLQPEDFGSYYCQHFWSIMWTFGGGTKLEIK
Take B8: the “huB7-H3 ka(1/Ms)” value with huB7-H3 came out at 110000 M⁻¹ s⁻¹.

B9: Ab3: mouse hybridoma anti-B7-H3 monoclonal antibody, mouse IgG1/k (antibody, V domains shown)
VH: QVQLQQPGAELVKPGASVKLSCKASGYTFSSYWMHWVKQRPGQGLEWIGLIHPDSGSTNYNEMFKNKATLTVDRSSSTAYVQLSSLTSEDSAVYFCAGGGRLYFDYWGQGTTLTVSS
VL: DVVMTQTPLSLPVSLGDQASISCRSSQSLVHSNGDTYLRWYLQKPGQSPKLLIYKVSNRFSGVPDRFSGSGSGTDFTLKITRVEAEDLGVYFCSQSTHVPYTFGGGTKLEIK
Turning to B9, the “huB7-H3 ka(1/Ms)” value with huB7-H3 was determined as 520000 M⁻¹ s⁻¹. For the same molecule, the epitope grouping entry with human B7-H3 is “ambiguous”.

B10: Ab2: mouse hybridoma anti-B7-H3 monoclonal antibody, mouse IgG1/k (antibody, V domains shown)
VH: QVQLQQPGAELVKPGASVKLSCKASGYTFTSYWMHWVKQRPGQGLEWIGMIHPDSGTTNYNEKFRSKATLTVDKSSSTAYMQLSSLTSEDSAVYYCAVYYGSTYWYFDVWGTGTTVTVSS
VL: DVVMTQTPLSLPVSLGDQAYISCRSSQSLVHINGNTYLHWYRQKPGQSPKLLIYKVSNRFSGVPDRFSGSGSGTDFTLKISRVEAEDLGVYFCSQSTHFPFTFGSGTKLEIK
Regarding B10, the “huB7-H3 ka(1/Ms)” value with huB7-H3 stood at 120000 M⁻¹ s⁻¹.

B11: Ab10: mouse hybridoma anti-B7-H3 monoclonal antibody, mouse IgG2b/k (antibody, V domains shown)
VH: DVQLQESGPGLVKPSQSLSLTCTVTGYSITSDYAWNWIRQFPGNRLEWMGHINYSGITNYNPSLKSRISITRDTSKNQFFLQLYSVTTEDTATYFCARRSLFYYYGSSLYAMDYWGQGTSVTVSS
VL: DVVMTQSPFSLPVSLGDQASISCRSSQSLVHSNGNTYLHWYLQKPGQSPKLLIYKVSNRFSGVPDRFSGSGSGTDFTLKISRVEAEDLGVYFCSQSTHVPWTFGGGTKLEIK
For B11, the “huB7-H3 ka(1/Ms)” value with huB7-H3 stood at 41000 M⁻¹ s⁻¹.
